Assay [1] concerns the target T1, ID1 polypeptide with Strep-tag (Plasmodium falciparum).
T1 construct: Expressed in E. coli, predicted 17 kDa; also called ID1 antigen peptide
T1 chain: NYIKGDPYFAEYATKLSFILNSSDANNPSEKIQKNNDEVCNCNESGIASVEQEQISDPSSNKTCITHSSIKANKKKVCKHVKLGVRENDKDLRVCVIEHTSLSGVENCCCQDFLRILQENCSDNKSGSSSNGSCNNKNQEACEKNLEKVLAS
In words: antigen-specific ELISA, OD450. In general terms: ELISA stands for enzyme-linked immunosorbent assay.

For assay [2], the target named is T2, DBL2X polypeptide with Strep-tag (Plasmodium falciparum).
T2 construct: Expressed in E. coli, predicted 40 kDa; also called DBL2X antigen peptide
T2 chain: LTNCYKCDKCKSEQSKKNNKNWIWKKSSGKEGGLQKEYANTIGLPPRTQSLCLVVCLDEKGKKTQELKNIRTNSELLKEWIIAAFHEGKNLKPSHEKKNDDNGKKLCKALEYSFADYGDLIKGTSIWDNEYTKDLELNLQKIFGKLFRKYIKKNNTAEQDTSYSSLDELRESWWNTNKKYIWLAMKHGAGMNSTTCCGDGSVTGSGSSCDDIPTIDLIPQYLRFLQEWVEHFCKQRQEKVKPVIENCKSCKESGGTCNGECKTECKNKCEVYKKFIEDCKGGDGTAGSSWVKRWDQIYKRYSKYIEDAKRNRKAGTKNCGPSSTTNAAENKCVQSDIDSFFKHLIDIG
In words: antigen-specific ELISA, OD450.

Assay [3] addresses T3, rVAR2 recombinant protein with a Strep-tag (prokaryotically expressed and purified) (Plasmodium falciparum).
T3 construct: Expressed in E. coli, about 74 kDa; also called prokaryotically expressed and purified rVAR2 protein; strep-tagged rVAR2 recombinant protein
T3 chain: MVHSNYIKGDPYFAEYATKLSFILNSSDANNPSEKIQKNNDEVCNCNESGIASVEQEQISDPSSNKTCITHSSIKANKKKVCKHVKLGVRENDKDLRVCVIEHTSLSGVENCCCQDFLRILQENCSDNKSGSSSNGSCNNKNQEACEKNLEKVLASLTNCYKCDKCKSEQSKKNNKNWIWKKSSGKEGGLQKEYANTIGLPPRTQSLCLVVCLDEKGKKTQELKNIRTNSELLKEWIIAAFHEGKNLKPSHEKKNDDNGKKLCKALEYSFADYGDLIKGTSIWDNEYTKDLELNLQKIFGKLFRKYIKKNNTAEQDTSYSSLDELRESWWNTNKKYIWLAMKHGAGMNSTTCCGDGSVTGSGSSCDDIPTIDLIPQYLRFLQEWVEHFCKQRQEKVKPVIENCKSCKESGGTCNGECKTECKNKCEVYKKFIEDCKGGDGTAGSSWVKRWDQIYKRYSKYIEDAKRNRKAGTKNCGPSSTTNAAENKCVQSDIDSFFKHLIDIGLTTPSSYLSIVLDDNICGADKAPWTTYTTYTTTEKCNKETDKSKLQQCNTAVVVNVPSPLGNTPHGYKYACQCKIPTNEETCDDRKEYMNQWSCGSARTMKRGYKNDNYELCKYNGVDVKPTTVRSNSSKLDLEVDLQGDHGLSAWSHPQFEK
In words: Western blot, 5H4 as primary antibody.

Assay [4] concerns the target T4, rVAR2 recombinant protein with the 3xFLAG-tag (eukaryotically expressed and purified) (Plasmodium falciparum, Possible post-translational modification (runs at about 115 kDa against 76 kDa predicted); not carried by the letters.).
T4 construct: Expressed in HEK293 or HEK293T cells; Predicted about 76 kDa, runs at about 115 kDa (possible post-translational modification); also called eukaryotically expressed and purified rVAR2 protein
T4 chain: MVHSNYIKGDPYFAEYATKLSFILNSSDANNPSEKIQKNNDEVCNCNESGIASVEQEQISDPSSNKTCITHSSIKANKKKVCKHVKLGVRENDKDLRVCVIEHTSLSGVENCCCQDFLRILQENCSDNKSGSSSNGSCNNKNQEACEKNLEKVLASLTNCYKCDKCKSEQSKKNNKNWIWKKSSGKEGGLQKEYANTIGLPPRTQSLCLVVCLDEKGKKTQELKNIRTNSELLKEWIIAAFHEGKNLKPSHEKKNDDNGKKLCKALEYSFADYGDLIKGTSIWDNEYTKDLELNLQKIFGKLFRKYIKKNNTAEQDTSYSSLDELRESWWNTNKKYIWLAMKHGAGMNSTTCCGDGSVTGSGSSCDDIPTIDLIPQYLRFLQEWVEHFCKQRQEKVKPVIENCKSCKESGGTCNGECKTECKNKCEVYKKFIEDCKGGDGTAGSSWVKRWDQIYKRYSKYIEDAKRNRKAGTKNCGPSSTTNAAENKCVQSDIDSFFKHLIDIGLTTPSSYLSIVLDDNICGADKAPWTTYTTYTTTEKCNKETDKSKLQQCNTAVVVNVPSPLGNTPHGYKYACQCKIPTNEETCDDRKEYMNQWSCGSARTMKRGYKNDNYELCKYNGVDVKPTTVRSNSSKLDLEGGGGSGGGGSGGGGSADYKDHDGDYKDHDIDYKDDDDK
The assay is described as follows: Western blot, 5H4 as primary antibody. For orientation: In western blotting, separated proteins are transferred to a membrane and probed.

In assay [5] the target is T5, ID2a polypeptide with Strep-tag (Plasmodium falciparum).
T5 construct: Expressed in E. coli, predicted about 15 kDa; also called ID2a antigen peptide
T5 chain: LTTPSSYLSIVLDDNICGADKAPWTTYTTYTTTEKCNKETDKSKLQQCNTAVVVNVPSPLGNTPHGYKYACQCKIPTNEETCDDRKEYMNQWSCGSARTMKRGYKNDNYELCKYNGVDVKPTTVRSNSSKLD
In words: antigen-specific ELISA, antigen coated at 1 µg/ml.

B1: anti-rVAR2 monoclonal antibody 5H4 (antibody, V domains shown)
VH: EVKLVESGGGLVKPGGSLKLSCAASGFTFSNYAMSWVRQSPERRLEWVAEISITGRYTYYPDTVTGRFTISRDNAKNTLYLEMSSLRSEDTAMYYCTREGYDYAPSWFAYWGQGTLVTVSA
VL: DVVMTQTPLSLPVSLGDQASISCRSGQTLVHRNGITYLEWYLQKPGQSPKLLIYKVSNRFSGVPDRFSGSGSGTDFTLKISRVEAEDLGIYYCFQGSHVPRTFGGGTKLEIK
notes: Murine IgG from a mouse B cell hybridoma, purified from hybridoma supernatant; isotype and constant regions are not; also called murine monoclonal antibody 5H4
In the case of B1, the binding result is reported as “no binding (tested: antigen coated at 1 µg/ml)” in assay [1]; “no binding (tested: antigen coated at 1 µg/ml)” in assay [2]; “binds” in assay [3]; “binds” in assay [4]; “binds” in assay [5].

These data come from patent US20210221880A1 (CAS LAMVAC GUANGZHOU BIOMEDICAL TECHNOLOGY, published 2021).
